This passage reports PD-L1 expression induced on HEK-CD4-IFN-γ cells, MFI of anti-PD-L1 APC staining and PD-L1 expression induced on HEK-IFN-γ cells, MFI of anti-PD-L1 APC staining results from US20230167164A1.

The assay addresses IFN-γ receptor (UniProt P15260). As to the kind of experiment: cell-based or functional assay.

Chain of IFN-γ receptor (P15260 18-489 limits assumed, chain 1 of 2): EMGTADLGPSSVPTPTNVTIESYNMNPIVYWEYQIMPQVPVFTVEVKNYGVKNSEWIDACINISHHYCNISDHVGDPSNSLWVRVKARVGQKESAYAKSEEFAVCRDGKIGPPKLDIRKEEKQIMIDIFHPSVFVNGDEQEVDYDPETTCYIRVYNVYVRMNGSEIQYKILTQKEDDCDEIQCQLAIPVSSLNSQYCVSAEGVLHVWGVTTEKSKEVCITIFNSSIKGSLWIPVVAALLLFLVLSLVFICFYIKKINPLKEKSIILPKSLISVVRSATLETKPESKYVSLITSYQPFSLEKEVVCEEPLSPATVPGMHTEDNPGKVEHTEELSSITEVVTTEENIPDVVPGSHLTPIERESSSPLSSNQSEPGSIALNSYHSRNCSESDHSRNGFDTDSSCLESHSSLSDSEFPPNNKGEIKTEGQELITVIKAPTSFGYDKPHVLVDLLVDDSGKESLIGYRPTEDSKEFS
Chain of IFN-γ receptor (P38484 22-337 limits assumed, chain 2 of 2, further chain): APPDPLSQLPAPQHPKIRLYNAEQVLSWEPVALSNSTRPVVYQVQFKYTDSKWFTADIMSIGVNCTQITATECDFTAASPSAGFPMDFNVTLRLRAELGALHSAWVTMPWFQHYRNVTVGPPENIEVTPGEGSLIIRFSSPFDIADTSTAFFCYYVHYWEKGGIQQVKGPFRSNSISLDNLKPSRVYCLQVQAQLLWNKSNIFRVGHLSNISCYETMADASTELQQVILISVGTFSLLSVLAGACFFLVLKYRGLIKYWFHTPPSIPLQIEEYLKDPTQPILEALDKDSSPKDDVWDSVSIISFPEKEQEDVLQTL

In the case of “recombinant IFN-γ (free state) (from UniProt P01579 24-166) (ligand)”, the PD-L1 expression induced on HEK-CD4-IFN-γ cells, MFI of anti-PD-L1 APC staining turned out to be 67 MFI and the PD-L1 expression induced on HEK-IFN-γ cells, MFI of anti-PD-L1 APC staining was 75 MFI.
